From patent US6660837B1, “Modified protein derived from protein kinase N” (Kirin Beer Kabushiki Kaisha, priority 1995, dated 2003)

Molecular target: T1, head-rod domain of NFL (Homo sapiens, UniProt P07196)
T1 construct: made in house; host or cells: bacteria (bacterially synthesized)
T1 sequence (P07196 1-349): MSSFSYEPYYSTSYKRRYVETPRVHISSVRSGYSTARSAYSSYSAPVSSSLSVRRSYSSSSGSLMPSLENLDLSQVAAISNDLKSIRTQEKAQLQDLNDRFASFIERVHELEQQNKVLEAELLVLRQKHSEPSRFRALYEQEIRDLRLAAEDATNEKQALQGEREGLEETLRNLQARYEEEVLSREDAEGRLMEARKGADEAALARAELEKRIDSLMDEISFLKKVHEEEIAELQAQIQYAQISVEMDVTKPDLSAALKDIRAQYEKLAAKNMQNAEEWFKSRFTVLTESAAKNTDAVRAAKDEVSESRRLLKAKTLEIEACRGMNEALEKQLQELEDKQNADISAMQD
Experiment: In vitro binding of in vitro translated PKN to GST-NFL
Details: GST pull-down
Description: For in vitro transcription, truncated human PKN was made as follows; Expression vector pPKNN2 for N-terminal region of PKN (the amino acid sequence 1-474 in SEQ ID NO: 1, this region was designated as “PKNN2”) was made by digesting phPKN-H4 (a plasmid containing human PKN cDNA in pBluescript II SK (Mukai, H. & Ono, Y., Biochem. Biophys. Res. Commun. 199, 897-904 (1994)) with Bst EII, and filling in the ends with T4 DNA polymerase, and self-legation. This removed the original amino acid sequences C-terminal downstream of the BstEII site (1425 nucleotides from initiating ATG codon), and a stop codon was created in the plasmid sequence. Fragment coding for the amino acid sequence 614-942 in SEQ ID NO: 1, (This region was designated as “PKNC2”) containing the conserved catalytic domain of human PKN was made by PCR amplification. Expression vector pPKNC2 was made by subcloning this fragment into pRc/CMV (Invitfrogen Corp.). These plasmids were linealized by cutting with XbaI, and CRNA was transcribed using T7 RNA polymerase. For NFL, pBL (Nakagawa, T. et al., J. Cell. Biol. 129, 411-429 (1995)) was linealized by cutting with HindIII, and CRNA was transcribed using T3 RNA polymerase. For in vitro translation, these cRNAs were translated in rabbit reticulocyte lysate (Promega) in the presence of [^35S] methionine. […]

Which “binding to head-rod domain of NFL in vitro” value does the source give for “N-terminal region of PKN: N-terminal regulatory region of human PKN: 1-540 (PKNN1) in two-hybrid and GST fusions, 1-474 when in vitro translated” here?
The value was “bound”.
